Data: US20060177479A1

Biological target: Notch receptor expressed on rat esophageal epithelial cells (rat)
Assay: cell-based or functional assay

In the case of “Recombinant Rat Jagged-1/Fc chimera (Fc fusion)”, the Notch/CSL signaling (luciferase/Renilla intensity), immobilized Jagged-1/Fc against Fc control is reported as 10 fold and the increase in luciferase activity as compared to Fc control plates, 10 nM Jagged-1/Fc precoat, 24 hours is reported as 4 to 10 fold.
